Source: US20140087995A1 (published 2014)
Numbered stars: 1 amine (or outer) side, 2 acyl side, 3 side chain; on linkers, the order of the positions; unused ones are H or OH. Bridge positions count the residues as written; N and C are the ends. * marks the point of attachment. C20 diacid = O=C(O)CCCCCCCCCCCCCCCCCCC(=O)*; γGlu = O=C(O)[C@H](CCC(=O)[*:2])N[*:1]

T1: rat amylin receptor (rat calcitonin receptor with rat RAMP 3) (rat, UniProt P32214 25-516; Q9JJ73 23-147)
T1 construct: whole, on cells; Used as membranes prepared from the transfected cells; also called rAmylin-R; rAmylin
T1 sequence (looked up) 1: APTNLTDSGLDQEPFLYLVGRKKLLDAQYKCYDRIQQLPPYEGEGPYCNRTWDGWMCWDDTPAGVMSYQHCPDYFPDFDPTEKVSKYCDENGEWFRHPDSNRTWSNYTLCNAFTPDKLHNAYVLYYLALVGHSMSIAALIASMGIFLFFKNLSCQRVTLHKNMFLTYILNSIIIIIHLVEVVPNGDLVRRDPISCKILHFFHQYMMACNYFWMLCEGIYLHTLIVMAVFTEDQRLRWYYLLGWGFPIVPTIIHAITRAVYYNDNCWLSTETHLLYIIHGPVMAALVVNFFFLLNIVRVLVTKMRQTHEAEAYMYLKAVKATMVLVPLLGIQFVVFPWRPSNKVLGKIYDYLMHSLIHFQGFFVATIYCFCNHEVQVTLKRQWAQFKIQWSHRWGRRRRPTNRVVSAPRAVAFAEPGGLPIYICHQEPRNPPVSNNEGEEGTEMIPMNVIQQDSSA
T1 sequence (looked up) 2: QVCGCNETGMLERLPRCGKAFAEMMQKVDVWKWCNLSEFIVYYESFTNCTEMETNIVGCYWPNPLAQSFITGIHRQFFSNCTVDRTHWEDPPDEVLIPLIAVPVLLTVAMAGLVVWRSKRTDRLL

T2: rat calcitonin receptor (rat, UniProt P32214 25-516)
T2 construct: whole, on cells; Used as membranes prepared from the transfected cells; also called rCTR; rCT
T2 sequence (looked up): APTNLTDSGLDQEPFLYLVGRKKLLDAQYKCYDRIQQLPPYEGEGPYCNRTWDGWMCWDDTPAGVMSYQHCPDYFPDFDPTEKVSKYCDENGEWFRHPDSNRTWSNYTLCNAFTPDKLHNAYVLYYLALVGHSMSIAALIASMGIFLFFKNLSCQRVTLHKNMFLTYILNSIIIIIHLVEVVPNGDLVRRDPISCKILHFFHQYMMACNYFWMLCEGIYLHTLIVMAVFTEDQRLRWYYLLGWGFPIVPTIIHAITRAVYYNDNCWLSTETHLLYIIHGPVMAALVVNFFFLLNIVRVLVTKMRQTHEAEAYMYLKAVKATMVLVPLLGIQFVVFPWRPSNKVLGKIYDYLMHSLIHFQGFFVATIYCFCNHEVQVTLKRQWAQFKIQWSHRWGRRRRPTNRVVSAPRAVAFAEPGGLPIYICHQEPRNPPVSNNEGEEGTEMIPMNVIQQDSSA

T3: human calcitonin receptor (human, UniProt P30988 25-474)
T3 construct: whole, on cells; Used as membranes prepared from the transfected cells; also called hCTR; hCT
T3 sequence (looked up): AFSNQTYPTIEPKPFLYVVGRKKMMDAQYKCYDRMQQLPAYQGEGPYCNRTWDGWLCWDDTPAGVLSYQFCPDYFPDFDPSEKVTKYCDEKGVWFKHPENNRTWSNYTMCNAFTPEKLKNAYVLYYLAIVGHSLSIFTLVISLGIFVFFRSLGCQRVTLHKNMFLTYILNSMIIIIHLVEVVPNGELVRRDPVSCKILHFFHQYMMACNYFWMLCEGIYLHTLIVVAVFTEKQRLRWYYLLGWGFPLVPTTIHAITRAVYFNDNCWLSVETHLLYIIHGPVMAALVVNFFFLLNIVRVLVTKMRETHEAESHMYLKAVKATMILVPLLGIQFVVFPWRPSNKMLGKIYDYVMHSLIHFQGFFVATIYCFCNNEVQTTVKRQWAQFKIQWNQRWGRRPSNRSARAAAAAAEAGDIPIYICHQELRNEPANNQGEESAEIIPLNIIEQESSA


Experiments:
[1] = target: T1, rat amylin receptor (rat calcitonin …); test: SPA competition with 125I-rat amylin, membranes with rat calcitonin receptor + rat RAMP3 (Assay VI)
rat calcitonin receptor [2] = target: T2, rat calcitonin receptor; test: SPA competition with 125I-calcitonin, membranes with rat calcitonin receptor (Assay VIII)
[3] = target: T3, human calcitonin receptor; test: ratio of binding IC50 at human calcitonin receptor to IC50 at human amylin receptor (reference)
Summary of the method: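 IC₅₀ values were derived by one-site competition analysis of SPA counts. Cell membranes (35 ng/μL) with SPA beads were incubated with test compounds for 120 min at 25° C in Hepes buffer, pH 7.4, containing CaCl2, MgCl₂, OA and Tween20.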

rat calcitonin receptor [4] = target: T2, rat calcitonin receptor; test: ratio of binding IC50 at rat calcitonin receptor to IC50 at rat amylin receptor (reference)

| IC50 [1] [nM] | IC50 (rat calcitonin receptor [2]) [nM] | Ratio hCT/hAmylin binding [3] | Ratio rCT/rAmylin binding (rat calcitonin receptor [4]) | Binder |
| --- | --- | --- | --- | --- |
| 11.2 | 311 | 65.3 | 27.7 | {C20 diacid-γGlu}-GRCNTATCATQRLAHFLRHSSPNFGAIPSSTNVGHNTY-NH2 (disulfide 3-8; SMILES CC[C@H](C)[C@H](NC(=O)[C@H](C)NC(=O)CNC(=O)[C@H](Cc1ccccc1)NC(=O)[C@H](CC(N)=O)NC(=O)[C@@H]1CCCN1C(=O)[C@H](CO)NC(=O)[C@H](CO)NC(=O)[C@H](Cc1c[nH]cn1)NC(=O)[C@H](CCCNC(=N)N)NC(=O)[C@H](CC(C)C)NC(=O)[C@H](Cc1ccccc1)NC(=O)[C@H](Cc1c[nH]cn1)NC(=O)[C@H](C)NC(=O)[C@H](CC(C)C)NC(=O)[C@H](CCCNC(=N)N)NC(=O)[C@H](CCC(N)=O)NC(=O)[C@@H](NC(=O)[C@H](C)NC(=O)[C@@H]1CSSC[C@H](NC(=O)[C@H](CCCNC(=N)N)NC(=O)CNC(=O)CC[C@H](NC(=O)CCCCCCCCCCCCCCCCCCC(=O)O)C(=O)O)C(=O)N[C@@H](CC(N)=O)C(=O)N[C@@H]([C@@H](C)O)C(=O)N[C@@H](C)C(=O)N[C@@H]([C@@H](C)O)C(=O)N1)[C@@H](C)O)C(=O)N1CCC[C@H]1C(=O)N[C@@H](CO)C(=O)N[C@@H](CO)C(=O)N[C@H](C(=O)N[C@@H](CC(N)=O)C(=O)N[C@H](C(=O)NCC(=O)N[C@@H](Cc1c[nH]cn1)C(=O)N[C@@H](CC(N)=O)C(=O)N[C@H](C(=O)N[C@@H](Cc1ccc(O)cc1)C(N)=O)[C@@H](C)O)C(C)C)[C@@H](C)O, Analogue of human amylin extended by Gly at the N-terminus; disulfide and C-terminal amide as told for h-amylin; also called compound 100) |
| 8.07 | 492 | 68.6 | 60.9 | {C20 diacid-γGlu}-GRCNTATCATQRLAAFLRHSSPNFGAIPSSTNVGHNTY-NH2 (disulfide 3-8; SMILES CC[C@H](C)[C@H](NC(=O)[C@H](C)NC(=O)CNC(=O)[C@H](Cc1ccccc1)NC(=O)[C@H](CC(N)=O)NC(=O)[C@@H]1CCCN1C(=O)[C@H](CO)NC(=O)[C@H](CO)NC(=O)[C@H](Cc1c[nH]cn1)NC(=O)[C@H](CCCNC(=N)N)NC(=O)[C@H](CC(C)C)NC(=O)[C@H](Cc1ccccc1)NC(=O)[C@H](C)NC(=O)[C@H](C)NC(=O)[C@H](CC(C)C)NC(=O)[C@H](CCCNC(=N)N)NC(=O)[C@H](CCC(N)=O)NC(=O)[C@@H](NC(=O)[C@H](C)NC(=O)[C@@H]1CSSC[C@H](NC(=O)[C@H](CCCNC(=N)N)NC(=O)CNC(=O)CC[C@H](NC(=O)CCCCCCCCCCCCCCCCCCC(=O)O)C(=O)O)C(=O)N[C@@H](CC(N)=O)C(=O)N[C@@H]([C@@H](C)O)C(=O)N[C@@H](C)C(=O)N[C@@H]([C@@H](C)O)C(=O)N1)[C@@H](C)O)C(=O)N1CCC[C@H]1C(=O)N[C@@H](CO)C(=O)N[C@@H](CO)C(=O)N[C@H](C(=O)N[C@@H](CC(N)=O)C(=O)N[C@H](C(=O)NCC(=O)N[C@@H](Cc1c[nH]cn1)C(=O)N[C@@H](CC(N)=O)C(=O)N[C@H](C(=O)N[C@@H](Cc1ccc(O)cc1)C(N)=O)[C@@H](C)O)C(C)C)[C@@H](C)O, Analogue of human amylin extended by Gly at the N-terminus; disulfide and C-terminal amide as told for h-amylin) |
